# Test results published in paper PMC9331606 (2022).
# Legend:
# [1] = molecular target: NanoLuciferase-tagged rat promyelocytic leukemia protein (rPML); assay: NanoBRET; conditions: HEK293T cells transfected 24 h; 4 h incubation with Halo ligand; detection time 5 s at 618 nm and 448 nm; parent: est. 2.8; read off a plot
# [2] = molecular target: NanoLuciferase-tagged human promyelocytic leukemia protein (hPML) (UniProt P29590); assay: NanoBRET; conditions: HEK293T cells transfected 24 h; 4 h incubation with Halo ligand; detection time 5 s at 618 nm and 448 nm; parent: est. 23; read off a plot
# NanoLuciferase-tagged human promyelocytic leukemia protein (hPML), sequence (P29590 whole entry): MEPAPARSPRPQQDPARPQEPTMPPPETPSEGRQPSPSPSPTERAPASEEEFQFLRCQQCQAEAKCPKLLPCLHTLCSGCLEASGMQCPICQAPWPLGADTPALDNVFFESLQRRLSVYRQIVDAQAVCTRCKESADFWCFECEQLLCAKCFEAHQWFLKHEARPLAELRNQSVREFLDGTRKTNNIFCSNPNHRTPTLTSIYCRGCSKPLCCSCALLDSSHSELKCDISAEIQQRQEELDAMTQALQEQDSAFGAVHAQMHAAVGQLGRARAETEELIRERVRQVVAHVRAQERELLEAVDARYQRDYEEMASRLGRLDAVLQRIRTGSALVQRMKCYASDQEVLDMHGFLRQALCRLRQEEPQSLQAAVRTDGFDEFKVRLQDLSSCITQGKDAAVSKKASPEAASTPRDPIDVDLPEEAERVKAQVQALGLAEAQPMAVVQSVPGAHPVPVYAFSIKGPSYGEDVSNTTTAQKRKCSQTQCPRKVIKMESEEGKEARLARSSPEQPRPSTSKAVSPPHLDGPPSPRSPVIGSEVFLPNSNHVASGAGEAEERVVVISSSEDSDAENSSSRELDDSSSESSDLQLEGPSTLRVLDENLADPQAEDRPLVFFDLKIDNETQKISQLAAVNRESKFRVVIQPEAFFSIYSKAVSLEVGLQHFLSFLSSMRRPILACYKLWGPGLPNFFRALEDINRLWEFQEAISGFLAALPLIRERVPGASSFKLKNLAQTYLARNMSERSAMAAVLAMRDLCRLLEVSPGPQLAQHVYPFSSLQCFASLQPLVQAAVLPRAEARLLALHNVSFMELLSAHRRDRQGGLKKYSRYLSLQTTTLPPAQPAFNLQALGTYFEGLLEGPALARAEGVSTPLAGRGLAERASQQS
Substance,response [1],response [2]
Halo-tagged human cytomegalovirus immediate early 1 protein (hIE1) (from UniProt P13202) L174P,7 mBU,–
Halo-tagged human cytomegalovirus immediate early 1 protein (hIE1) (from UniProt P13202) cc172-176,–,24 mBU
Halo-tagged human cytomegalovirus immediate early 1 protein (hIE1) (from UniProt P13202) hIE1_rH1,5.5 mBU,1.6 mBU
Halo-tagged human cytomegalovirus immediate early 1 protein (hIE1) (from UniProt P13202) hIE1_rH1/2,6.5 mBU,3.7 mBU
Halo-tagged human cytomegalovirus immediate early 1 protein (hIE1) (from UniProt P13202) hIE1_rH4,4 mBU,4.1 mBU
Halo-tagged human cytomegalovirus immediate early 1 protein (hIE1) (from UniProt P13202) hIE1_rH8,6.5 mBU,2.2 mBU
Halo-tagged human cytomegalovirus immediate early 1 protein (hIE1) (from UniProt P13202) hIE1_rH10/11,6.5 mBU,2.6 mBU
